From the supplement of paper PMC11136658

System: peptide library, one residue held at a place counted from the Y acceptor
Test: relative phosphorylation of the sub-library (ratio to the mean residue at this position); higher = residue favoured
Outline: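 Biotinylated Tyr-centred peptide library mixtures, each fixing one residue at one position from −5 to +5, were incubated with purified recombinant kinases in 384-well plates for 90 min with 50 μM ATP plus γ-32P-ATP. Streptavidin membranes captured the peptides, which were rinsed and quantified by phosphorimaging and ImageQuant. At each position, intensities were divided by the sum of the 18 randomized residues (16 for the Ser/Thr-free library) and multiplied by that number. Each value is phosphorylation relative to the mean randomized residue.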

Sequence of JAK1, construct: aa866-end, human (P23458 866-1154, looked up): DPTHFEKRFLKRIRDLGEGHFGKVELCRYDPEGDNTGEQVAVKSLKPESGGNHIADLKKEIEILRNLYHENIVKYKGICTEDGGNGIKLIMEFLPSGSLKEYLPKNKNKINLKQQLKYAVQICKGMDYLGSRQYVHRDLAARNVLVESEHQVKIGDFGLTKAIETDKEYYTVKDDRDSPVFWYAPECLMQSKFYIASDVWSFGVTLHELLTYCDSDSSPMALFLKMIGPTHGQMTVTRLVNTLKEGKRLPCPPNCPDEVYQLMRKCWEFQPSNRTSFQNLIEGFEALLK
Sequence of JAK2, construct: aa809-end plus 9aa C-term extension from Gateway cloning, human (O60674 809-1132, looked up): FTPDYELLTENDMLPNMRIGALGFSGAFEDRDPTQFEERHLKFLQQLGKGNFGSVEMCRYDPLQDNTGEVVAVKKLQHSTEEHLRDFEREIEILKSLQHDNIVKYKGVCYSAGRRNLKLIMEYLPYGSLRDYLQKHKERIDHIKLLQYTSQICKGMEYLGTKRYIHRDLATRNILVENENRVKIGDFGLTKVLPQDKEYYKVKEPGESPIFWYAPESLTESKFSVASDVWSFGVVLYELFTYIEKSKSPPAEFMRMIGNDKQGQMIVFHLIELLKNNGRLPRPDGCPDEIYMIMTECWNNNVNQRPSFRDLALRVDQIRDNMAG

JAK1, construct: aa866-end, human (from UniProt P23458)
relative phosphorylation
Conditions | at +1 | at +2 | at +3 | at +4 | at +5 | at -1 | at -2 | at -3 | at -4 | at -5
A fixed | 0.719 | 1.02 | 0.75 | 0.954 | 1.06 | 1.36 | 1.03 | 1.03 | 1.2 | 1.05
D fixed | 0.171 | 0.329 | 0.239 | 0.618 | 0.655 | 0.907 | 0.905 | 0.919 | 0.963 | 0.916
E fixed | 0.237 | 0.402 | 0.195 | 0.79 | 0.649 | 1.08 | 0.81 | 0.891 | 1.02 | 0.871
F fixed | 2.15 | 0.807 | 1.02 | 1.08 | 1.09 | 1.11 | 0.81 | 1.1 | 1.23 | 1.03
G fixed | 0.385 | 0.788 | 0.879 | 1.19 | 1.19 | 1.44 | 1.21 | 1.11 | 1.19 | 1.16
H fixed | 0.87 | 0.545 | 0.714 | 1.05 | 0.906 | 0.847 | 0.915 | 0.905 | 0.788 | 0.931
I fixed | 2.1 | 0.695 | 2.37 | 0.834 | 0.784 | 1.24 | 0.941 | 0.795 | 0.861 | 1.04
K fixed | 0.286 | 1.88 | 0.713 | 1.25 | 1.16 | 0.364 | 0.824 | 0.732 | 0.851 | 1.01
L fixed | 2.04 | 0.871 | 2.13 | 0.875 | 0.886 | 1.24 | 1.04 | 1.15 | 1.12 | 1.09
M fixed | 2.06 | 0.911 | 1.35 | 1.11 | 0.897 | 1.17 | 1.03 | 1.09 | 0.983 | 1.07
N fixed | 0.289 | 1.04 | 0.752 | 0.882 | 0.923 | 0.749 | 1.05 | 1.02 | 0.784 | 0.914
P fixed | 0.371 | 1.55 | 0.755 | 0.89 | 1.41 | 1.63 | 1.13 | 1.41 | 1.33 | 1.24
Q fixed | 0.699 | 0.893 | 0.494 | 1.03 | 0.852 | 0.661 | 1.06 | 0.845 | 1.09 | 0.953
R fixed | 0.509 | 2.13 | 0.985 | 1.45 | 1.33 | 0.414 | 1.02 | 0.851 | 0.929 | 0.911
S fixed | 0.534 | 1.43 | 0.836 | 1.16 | 1.21 | 0.813 | 1.33 | 1.13 | 0.844 | 0.904
T fixed | 0.812 | 1.09 | 1.2 | 0.956 | 1.19 | 0.865 | 1.05 | 0.983 | 0.678 | 0.805
V fixed | 1.8 | 0.832 | 1.67 | 0.887 | 0.838 | 1.35 | 0.931 | 0.957 | 0.922 | 0.953
W fixed | 1.96 | 0.781 | 0.953 | 0.988 | 0.971 | 0.756 | 0.89 | 1.08 | 1.22 | 1.14
pThr fixed | 0.349 | 0.342 | 0.188 | 0.413 | 0.485 | 0.849 | 0.695 | 0.704 | 0.872 | 0.823
pTyr fixed | 0.608 | 0.384 | 0.271 | 0.735 | 0.608 | 2.64 | 0.751 | 0.934 | 0.929 | 0.925

JAK2, construct: aa809-end plus 9aa C-term extension from Gateway cloning, human (from UniProt O60674)
relative phosphorylation
Conditions | at +1 | at +2 | at +3 | at +4 | at +5 | at -1 | at -2 | at -3 | at -4 | at -5
A fixed | 1.07 | 0.945 | 0.889 | 0.971 | 1.11 | 1.13 | 0.982 | 1.02 | 1.07 | 1.08
D fixed | 0.252 | 0.644 | 0.411 | 0.858 | 0.792 | 1.32 | 0.91 | 1 | 1.04 | 0.999
E fixed | 0.45 | 0.78 | 0.33 | 0.934 | 0.764 | 1.18 | 0.98 | 1.01 | 1.26 | 0.926
F fixed | 1.63 | 1.08 | 1.42 | 1.12 | 1.02 | 1.11 | 0.961 | 1.05 | 1.09 | 1.07
G fixed | 0.48 | 0.786 | 0.788 | 1.13 | 1.25 | 0.999 | 1.14 | 1.18 | 1.36 | 1.1
H fixed | 1.42 | 0.785 | 1.12 | 1.05 | 1.04 | 1.05 | 1.07 | 0.901 | 0.929 | 0.919
I fixed | 1.97 | 0.961 | 1.94 | 0.87 | 0.922 | 1.26 | 1.04 | 0.953 | 0.963 | 1.06
K fixed | 0.447 | 1.23 | 0.52 | 1.11 | 0.962 | 0.659 | 0.998 | 0.825 | 0.861 | 0.903
L fixed | 1.55 | 1.08 | 1.43 | 0.892 | 0.927 | 1.11 | 1.05 | 1.03 | 1.05 | 1.07
M fixed | 1.35 | 1 | 1.25 | 1.15 | 0.946 | 0.87 | 0.794 | 0.901 | 0.997 | 1.05
N fixed | 0.45 | 0.982 | 0.681 | 0.846 | 0.871 | 0.762 | 0.981 | 1.01 | 0.849 | 1.02
P fixed | 0.566 | 1.03 | 1.24 | 1.04 | 1.64 | 1.16 | 1.13 | 1.45 | 1.16 | 1.22
Q fixed | 0.9 | 0.975 | 0.667 | 1.12 | 0.867 | 0.745 | 0.954 | 0.824 | 1.11 | 1.01
R fixed | 0.623 | 1.2 | 0.686 | 1.09 | 0.931 | 0.616 | 0.984 | 0.757 | 0.886 | 0.877
S fixed | 0.814 | 1.02 | 0.893 | 0.966 | 1.1 | 0.987 | 1.05 | 1.02 | 0.772 | 0.927
T fixed | 1.09 | 1.07 | 1.17 | 0.909 | 1.06 | 0.989 | 0.98 | 0.976 | 0.716 | 0.824
V fixed | 1.76 | 1.1 | 1.35 | 0.915 | 0.886 | 1.14 | 0.983 | 1.03 | 0.836 | 0.988
W fixed | 1.18 | 1.32 | 1.23 | 1.04 | 0.914 | 0.909 | 1 | 1.05 | 1.05 | 0.952
pThr fixed | 0.332 | 0.537 | 0.205 | 0.53 | 0.543 | 1.1 | 0.744 | 0.944 | 1 | 0.905
pTyr fixed | 0.814 | 0.927 | 0.422 | 0.803 | 0.643 | 1.59 | 0.983 | 1.35 | 1.4 | 1.15
